# Assay results: IntAct's records for PubMed 16183855
# B1: Caspase-8 (Homo sapiens), Q14790 (parent)
# chain: MDFSRNLYDIGEQLDSEDLASLKFLSLDYIPQRKQEPIKDALMLFQRLQEKRMLEESNLSFLKELLFRINRLDLLITYLNTRKEEMERELQTPGRAQISAYRVMLYQISEEVSRSELRSFKFLLQEEISKCKLDDDMNLLDIFIEMEKRVILGEGKLDILKRVCAQINKSLLKIINDYEEFSKERSSSLEGSPDEFSNGEELCGVMTISDSPREQDSESQTLDKVYQMKSKPRGYCLIINNHNFAKAREKVPKLHSIRDRNGTHLDAGALTTTFEELHFEIKPHDDCTVEQIYEILKIYQLMDHSNMDCFICCILSHGDKGIIYGTDGQEAPIYELTSQFTGLKCPSLAGKPKVFFIQACQGDNYQKGIPVETDSEEQPYLEMDLSSPQTRYIPDEADFLLGMATVNNCVSYRNPAEGTWYIQSLCQSLRERCPRGDDILTILTEVNYEVSNKDDKKNMGKQMPQPTFTLRKKLVFPSD
# Variants of: B1
# Settings: with bcl2_human BCL2, P10415
# bcl2_human BCL2, P10415, sequence (P10415 whole entry): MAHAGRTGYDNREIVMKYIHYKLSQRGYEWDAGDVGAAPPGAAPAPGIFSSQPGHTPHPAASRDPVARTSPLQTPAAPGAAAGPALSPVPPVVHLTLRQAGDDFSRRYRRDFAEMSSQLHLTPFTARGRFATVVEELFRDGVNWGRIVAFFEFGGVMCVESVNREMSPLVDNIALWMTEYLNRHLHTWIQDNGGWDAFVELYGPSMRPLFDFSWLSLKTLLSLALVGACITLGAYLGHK
row,Variant,effect of a mutation on the interaction
1,C360S,increasing interaction
